The source of these data is US20250027068.

B1: PRT-175 (protein)
chain: MANQEIRYSEVTPYHITSVWTKGVTPPTDFTQGEDVFHAPYKANQGWYDITKTFNGKDDLLCGAATAGNMLHWWFDQNKTQIERYLKKHPEKQKINFNGEQMFDVKEAIDTKNSQTNSELFNYFKEKAFPYLSTKHLGVFPDHVIDMFINGYRLSLTNHGPTPVKRQSKDPRGGIFDAVFTRGDQSKLLTSRHDFKEKTLNEISQLIKQELTEGKALGLSHTYANVRINHVINLWGADFDAEGNLEAIYVTDSDSNASIGMKKYFVGVNSAGKVAISAKEIKEDNIGAQVLGLFTLSTGKDSWEKTN
B2: PRT-186 (protein)
chain: MANQEIRYSEVTPYHVTSVWTKGVTPPANFRKIVDGNIAYYHAPYVANQGWYDITKTFNGKDDLLCGAATAGNMLHWWFDQNKDQIKRYLEEHPEKQKINFNGEQMFDVKEAIDTKNHQLDSKLFEYFKEKAFPYLSTKHLGVFPDHVIDMFINGYRLSLTNHGPTPVKEGSKDPRGGIFDAVFTRGDQSKLLTSRHDFKEKNLKEISDLIKKELTEGKALGLSHTYANVRINHVINLWGADFDSNGNLKAIYVTDSDSNASIGMKKYFVGVNSAGKVAISAKEIKEDNIGAQVLGLFTLSTGQDSWNQTN
B3: PRT-180 (protein)
chain: MANQEIRYSEVTPYHVTSVWTKGVTPPANFTQGEDVFHAPYVANQGWYDITKTFNGKDDLLCGAATAGNMLHWWFDQNKDQIKRYLEEHPEKQKINFNGEQMFDVKEAIDTKNHQLDSKLFEYFKEKAFPYLSTKHLGVFPDHVIDMFINGYRLSLTNTQSTDVNEGSKDPRGGIFDAVFTRGDQSKLLTSRHDFKEKNLKEISDLIKKELTEGKALGLSHTYANVRINHVINLWGADFDSNGNLKAIYVTDSDSNASIGMKKYFVGVNSAGKVAISAKEIKEDNIGAQVLGLFTLSTGQDSWNQTN
B4: PRT-184 (protein)
chain: B3 chain with T159H, Q160G, S161P, D163P, N165K, N304Q, Q305K, T306L, N307S
B5: PRT-188 (protein)
chain: MANQEIRYSEVTPYHVTSVWTKGVTPPANFRKIVDGNIAYYAAPYVANQGWYDITKTFNGKDDLLCGAATAGNMLHWWFDQNKDQIKRYLEEHPEKQKINFNGEQMFDVKELNTYESDHGYRDKSKLFEYFKEKAFPYLSTKHLGVFPDHVIDMFINGYRLSLTNHGPTPVKEGSKDPRGGIFDAVFTRGDQSKLLTSRHDFKEKNLKEISDLIKKELTEGKALGLSHTYANVRINHVINLWGADFDSNGNLKAIYVTDSDDKKLTIGDERIGMKKYFVGVNSAGKVAISAKEIKEDNIGAQVLGLFTLSTGQDSWNQTN
B6: PRT-189 (protein)
chain: MANQEIRYSEVTPYHVTSVWTKGVTPPDHDFANFTQGEDVFHAPYVANQGWYDITKTFNGKDDLLCGAATAGNMLHWWFDQNKDQIKRYLEEHPEKQKINFNGEQMFDVKEAIDTKNHQLDSKLFEYFKEKAFPYLSTKHLGVFPDHVIDMFINGYRLSLTNHGPTPVKEGSKDPRGGIFDAVFTRGDQSKLLTSRHDFKEKNLKEISDLIKKELTEGKALGLSHTYANVRINHVINLWGADFDSNGNLKAIYVTDSDSNASIGMKKYFVGVNSAGKVAISAKEIKEDNIGAQVLGLFTLSTGQDSWNQTN
B7: PRT-190 (protein)
chain: B6 chain with A32R, N33K, F34I, T35V, Q36D
B8: PRT-176 (protein)
chain: MANQEIRYSEVTPYHITSVWTKGVTPPTDFIKGEDVFHAPYKAHQGWYDITKTFNGGDDLLCGAATAGNMLHWWFDQNKTQIEAYLKKHPEKQKINFNGEQMFDVKEAIDTKNSQTNSELFNYFKEKAFPYLSTKHLGVFPDHVIDMFINGYRLSLTNHGPTPVKRQTKDPRGGIFDAVFGRGDQTKLLTSRHDFKEKTLNDISQLIKQELQSGKALGLSHTYANVRINHVINLWGADFDAEGNLEAIYVTDSDSNASIGMKKYFVGKNASGKVAISAKEIEDENIGAQVLGLFTLSTGKKSWEKTN
B9: PRT-177 (protein)
chain: B8 chain with T17K, S18T, K22D, T25K, T53A, N55D, K79S, E91D, Q185S
B10: PRT-183 (protein)
chain: MRNATEAYAKEVPHQVTSVWTKGVTPPANFTQGEDVFHAPYVANQGWYDITKTFNGKDDLLCGAATAGNMLHWWFDQNKDQIKRYLEEHPEKQKINFNGEQMFDVKEAIDTKNHQLDSKLFEYFKEKAFPYLSTKHLGVFPDHVIDMFINGYRLSLTNHGPTPVKEGSKDPRGGIFDAVFTRGDQSKLLTSRHDFKEKNLKEISDLIKKELTEGKALGLSHTYANVRINHVINLWGADFDSNGNLKAIYVTDSDSNASIGMKKYFVGVNSAGKVAISAKEIKEDNIGAQVLGLFTLSTGQDSWNQTN
B11: PRT-178 (protein)
chain: MANQEIRYSEVTPYHVTSVWTKGVTPPANFTQGEDVFHAPYVANQGWYDITKTFNGKDDLLCGAATAGNMLHWWFDQNKDQIKRYLEEHPEKQKIIFNNQELFDLKAAIDTKNHQLDSKLFEYFKEKAFPYLSTKHLGVFPDHVIDMFINGYRLSLTNHGPTPVKEGSKDPRGGIFDAVFTRGDQSKLLTSRHDFKEKNLKEISDLIKKELTEGKALGLSHTYANVRINHVINLWGADFDSNGNLKAIYVTDSDSNASIGMKKYFVGVNSAGKVAISAKEIKEDNIGAQVLGLFTLSTGQDSWNQTN
B12: PRT-179 (protein)
chain: B3 chain with T134A, K135R, H136Q, T159H, Q160G, S161P, D163P, N165K
B13: PRT-181 (protein)
chain: B3 chain with T159H, Q160G, S161P, D163P, N165K, F195L, E197N
B14: PRT-182 (protein)
chain: B3 chain with T159H, Q160G, S161P, D163P, N165K, E280K
B15: PRT-185 (protein)
chain: MANQEIRYSEVTPYHVTSVWTKGVTPPANFRQGEDVFAAPYVANQGWYDITKTFNGKDDLLCGAATAGNMLHWWFDQNKDQIKRYLEEHPEKQKINFNGEQMFDVKELNTYESDHGYRDKSKLFEYFKEKAFPYLSTKHLGVFPDHVIDMFINGYRLSLTNHGPTPVKEGSKDPRGGIFDAVFTRGDQSKLLTSRHDFKEKNLKEISDLIKKELTEGKALGLSHTYANVRINHVINLWGADFDSNGNLKAIYVTDSDDKKLTIGDERIGMKKYFVGVNSAGKVAISAKEIKEDNIGAQVLGLFTLSTGQDSWNQTN
B16: PRT-187 (protein)
chain: MANQEIRYSEVTPYHVTSVWTKGVTPPADFTYGEDVFHAPYVANQGWYDITKTFNGKDDLLCGAATAGNMLHWWFDQNKEQIEKYLKKHPEKQKIMFGDQELLDVRKVINTKGSQTNSELFNYFRDKAFPGLSARRLGVMPDLVLDMFINGYYLNVYKTQTTDVNRTYQEKDKRGGIFDAVFTRGDQSKLLTSRHDFKEKNLKEISDLIKQELTEGKALGLSHTYANVRINHVINLWGADFDSNGNLKAIYVTDSDSNASIGMKKYFVGVNSAGKVAISAKEIKEDNIGAQVLGLFTLSTGQDIWNQTN

Residue numbers refer to the chain shown, from its start.

The data set deals with pooled human IgG (human IgG1,2,3 and 4).
B1 had an Enzyme Activity Endpoint Assay: Fab'2 of 497 ng/µL, an Enzyme Activity Endpoint Assay: Fc of 147 ng/µL, an Enzyme Activity Endpoint Assay: IgG of 0 ng/µL and an Enzyme Activity Endpoint Assay: scIgG of 0 ng/µL.
B2 came in with an Enzyme Activity Endpoint Assay: Fab'2 of 646 ng/µL, an Enzyme Activity Endpoint Assay: Fc of 218 ng/µL, an Enzyme Activity Endpoint Assay: IgG of 9 ng/µL and an Enzyme Activity Endpoint Assay: scIgG of 0 ng/µL.
For B3, in that order: 690 ng/µL, 197 ng/µL, 0 ng/µL and 0 ng/µL.
For B4, in that order: 629 ng/µL, 165 ng/µL, 0 ng/µL and 0 ng/µL.
In turn, B5 had an Enzyme Activity Endpoint Assay: Fab'2 of 0 ng/µL, an Enzyme Activity Endpoint Assay: Fc of 40 ng/µL, an Enzyme Activity Endpoint Assay: IgG of 905 ng/µL and an Enzyme Activity Endpoint Assay: scIgG of 25 ng/µL.
On the same counts, the results for B6 are 469 ng/µL, 307 ng/µL, 0 ng/µL and 101 ng/µL.
For B7, in that order: 323 ng/µL, 278 ng/µL, 76 ng/µL and 145 ng/µL.
B8: the Enzyme Activity Endpoint Assay: Fab'2 is 310 ng/µL, the Enzyme Activity Endpoint Assay: Fc was determined as 140 ng/µL, the Enzyme Activity Endpoint Assay: IgG was 0 ng/µL and the Enzyme Activity Endpoint Assay: scIgG was determined as 86 ng/µL.
On the same counts, the results for B9 are 67 ng/µL, 105 ng/µL, 131 ng/µL and 426 ng/µL.
On the same counts, the results for B10 are 630 ng/µL, 175 ng/µL, 0 ng/µL and 0 ng/µL.
On the same counts, the results for B11 are 695 ng/µL, 196 ng/µL, 0 ng/µL and 0 ng/µL.
The protein B12 registered an Enzyme Activity Endpoint Assay: Fab'2 of 697 ng/µL, an Enzyme Activity Endpoint Assay: Fc of 187 ng/µL, an Enzyme Activity Endpoint Assay: IgG of 0 ng/µL and an Enzyme Activity Endpoint Assay: scIgG of 0 ng/µL.
In turn, B13 had an Enzyme Activity Endpoint Assay: Fab'2 of 890 ng/µL, an Enzyme Activity Endpoint Assay: Fc of 217 ng/µL, an Enzyme Activity Endpoint Assay: IgG of 24 ng/µL and an Enzyme Activity Endpoint Assay: scIgG of 0 ng/µL.
On the same counts, the results for B14 are 563 ng/µL, 167 ng/µL, 0 ng/µL and 27 ng/µL.
For B15, in that order: 0 ng/µL, 45 ng/µL, 365 ng/µL and 152 ng/µL.
On the same counts, the results for B16 are 265 ng/µL, 307 ng/µL, 115 ng/µL and 103 ng/µL.
